Laboratory results from the supplement of paper PMC10065799, “High-throughput profiling of sequence recognition by tyrosine kinases and SH2 domains using bacterial peptide display” (eLife, 2023).

Each sequence was assayed against Grb2 SH2 (UniProt P62993) (assay: SH2 binding enrichment of the phosphorylated peptide, bacterial display (enrichment ratio); higher = better substrate or ligand; peptides without Tyr show the background).
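Wherever SH2 binding enrichment of the phosphorylated peptide, bacterial display is given: peptide library displayed on the E. coli surface as eCPX fusions, selected cells deep-sequenced, score is each peptide's frequency after selection divided by its frequency in the input.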
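Wherever phosphorylation enrichment, bacterial display is given: 11-residue human phosphosite peptides and single-mutation variants displayed on the E. coli surface, counted by deep sequencing, each peptide's frequency after selection divided by its frequency in the unselected input library; frequency after pTyr selection over input frequency; kinase dosed for 20-30% of maximal phosphorylation in three min.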

Chain of Grb2 SH2 (P62993 whole entry, looked up, the tested form may be a part): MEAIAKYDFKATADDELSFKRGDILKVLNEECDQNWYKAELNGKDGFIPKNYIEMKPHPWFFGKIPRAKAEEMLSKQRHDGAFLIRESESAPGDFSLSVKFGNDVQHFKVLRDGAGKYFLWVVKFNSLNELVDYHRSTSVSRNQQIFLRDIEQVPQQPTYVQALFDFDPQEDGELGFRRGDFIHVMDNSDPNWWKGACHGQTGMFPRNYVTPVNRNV

Row | Sequence | SH2 binding enrichment
1 | SFHSSYSEIKD [DCLRE1C_Y322] | 0.982
2 | AVPSLYASGRT [ACTA1_Y145_L142P] | 0.818
3 | MSNFACVKREV [SCN1A_Y1694_Y1694C] | 0.88
4 | EHTTLYSDNST [KANSL1_Y223_N225D] | 0.949
5 | ESDFPYSSSFE [SRPK2_Y427_T426P_YF] | 0.738
6 | NLDRFYQQVTK [SEC16A_Y1041] | 0.862
7 | AIGFEYSEINI [SIGLEC12_Y588_YF] | 0.632
8 | YVFSFYHAFSG [ACTN4_Y265_S262F] | 1.19
9 | VKMLLYTEVTR [GDI1_Y93] | 0.869
10 | GHEEFYSTHPH [LRRK2_Y1402_R1398H] | 0.771
11 | SEPDLYYDPRG [PKP1_Y160_C161Y] | 0.864
12 | IRGNMYYENSY [EGFR_Y112] | 4.75
13 | YGGLRYGYGVL [KRTAP20-2_Y13] | 1.07
14 | RPQDGYRIVQH [PTPRT_Y1329] | 0.915
15 | LFDPDYMKVIL [CYP4A22_Y104_YF] | 0.775
16 | CTTIHYHFMCN [TP53_Y234_N235H_YF] | 1.65
17 | KVDKEYEVRVR [GHR_Y226] | 1.05
18 | LYSNAYLNDLA [ALDH1A1_Y119] | 4.68
19 | LPKEQYLYTKE [AFG3L2_Y614] | 0.75
20 | FRGFSYDDIPD [TMEM230_Y112_YF] | 0.882
21 | HLTLVYGGIFL [FBP1_Y259_R255L] | 0.808
22 | LPPGEYVVVPS [CAPN1_Y494] | 1.06
23 | FISLIYTNFEA [GSTP1_Y109_YF] | 1.1
24 | MSRDVYSTDCF [NTRK2_Y702_Y706C_YF] | 0.894
25 | DEIPLYLKGGV [COX7A2_Y44] | 0.83
26 | DISEPYKVYRI [IRF8_Y107] | 0.901
27 | KILTHYKRPHT [KMT2D_Y5349] | 1.76
28 | RAIDMYLMGCF [GABRB2_Y308_K303R] | 0.886

What follows are sequences tested against c-Src SH2 in the same assay as above.

Row | Sequence | SH2 binding enrichment
29 | SFHSSYSEIKD [DCLRE1C_Y322] | 22.5
30 | AVPSLYASGRT [ACTA1_Y145_L142P] | 0.415
31 | MSNFACVKREV [SCN1A_Y1694_Y1694C] | 0.514
32 | EHTTLYSDNST [KANSL1_Y223_N225D] | 0.585
33 | ESDFPYSSSFE [SRPK2_Y427_T426P_YF] | 0.485
34 | NLDRFYQQVTK [SEC16A_Y1041] | 2.6
35 | AIGFEYSEINI [SIGLEC12_Y588_YF] | 0.923
36 | YVFSFYHAFSG [ACTN4_Y265_S262F] | 0.889
37 | VKMLLYTEVTR [GDI1_Y93] | 0.771
38 | GHEEFYSTHPH [LRRK2_Y1402_R1398H] | 0.434
39 | SEPDLYYDPRG [PKP1_Y160_C161Y] | 0.524
40 | IRGNMYYENSY [EGFR_Y112] | 4.19
41 | YGGLRYGYGVL [KRTAP20-2_Y13] | 0.707
42 | RPQDGYRIVQH [PTPRT_Y1329] | 0.508
43 | LFDPDYMKVIL [CYP4A22_Y104_YF] | 0.392
44 | CTTIHYHFMCN [TP53_Y234_N235H_YF] | 1.67
45 | KVDKEYEVRVR [GHR_Y226] | 0.589
46 | LYSNAYLNDLA [ALDH1A1_Y119] | 1.84
47 | LPKEQYLYTKE [AFG3L2_Y614] | 0.597
48 | FRGFSYDDIPD [TMEM230_Y112_YF] | 7.24
49 | HLTLVYGGIFL [FBP1_Y259_R255L] | 0.544
50 | LPPGEYVVVPS [CAPN1_Y494] | 0.789
51 | FISLIYTNFEA [GSTP1_Y109_YF] | 0.524
52 | MSRDVYSTDCF [NTRK2_Y702_Y706C_YF] | 0.757
53 | DEIPLYLKGGV [COX7A2_Y44] | 0.454
54 | DISEPYKVYRI [IRF8_Y107] | 0.479
55 | KILTHYKRPHT [KMT2D_Y5349] | 1.56
56 | RAIDMYLMGCF [GABRB2_Y308_K303R] | 0.332

What follows are sequences tested against SHP2-C SH2 in the same assay as above.

Row | Sequence | SH2 binding enrichment
57 | SFHSSYSEIKD [DCLRE1C_Y322] | 4.96
58 | AVPSLYASGRT [ACTA1_Y145_L142P] | 0.643
59 | MSNFACVKREV [SCN1A_Y1694_Y1694C] | 0.612
60 | EHTTLYSDNST [KANSL1_Y223_N225D] | 0.723
61 | ESDFPYSSSFE [SRPK2_Y427_T426P_YF] | 0.543
62 | NLDRFYQQVTK [SEC16A_Y1041] | 0.628
63 | AIGFEYSEINI [SIGLEC12_Y588_YF] | 0.86
64 | YVFSFYHAFSG [ACTN4_Y265_S262F] | 1.23
65 | VKMLLYTEVTR [GDI1_Y93] | 0.706
66 | GHEEFYSTHPH [LRRK2_Y1402_R1398H] | 1.09
67 | SEPDLYYDPRG [PKP1_Y160_C161Y] | 0.679
68 | IRGNMYYENSY [EGFR_Y112] | 0.897
69 | YGGLRYGYGVL [KRTAP20-2_Y13] | 1.09
70 | RPQDGYRIVQH [PTPRT_Y1329] | 0.476
71 | LFDPDYMKVIL [CYP4A22_Y104_YF] | 0.564
72 | CTTIHYHFMCN [TP53_Y234_N235H_YF] | 2.26
73 | KVDKEYEVRVR [GHR_Y226] | 1.06
74 | LYSNAYLNDLA [ALDH1A1_Y119] | 0.613
75 | LPKEQYLYTKE [AFG3L2_Y614] | 0.643
76 | FRGFSYDDIPD [TMEM230_Y112_YF] | 0.595
77 | HLTLVYGGIFL [FBP1_Y259_R255L] | 0.883
78 | LPPGEYVVVPS [CAPN1_Y494] | 0.795
79 | FISLIYTNFEA [GSTP1_Y109_YF] | 0.872
80 | MSRDVYSTDCF [NTRK2_Y702_Y706C_YF] | 0.683
81 | DEIPLYLKGGV [COX7A2_Y44] | 0.716
82 | DISEPYKVYRI [IRF8_Y107] | 0.795
83 | KILTHYKRPHT [KMT2D_Y5349] | 1.27
84 | RAIDMYLMGCF [GABRB2_Y308_K303R] | 0.572

The sequences below were run against Fes (UniProt P07332) (assay: phosphorylation enrichment, bacterial display (enrichment ratio); higher = better substrate or ligand; peptides without Tyr show the background).
Chain of Fes (P07332 whole entry, looked up): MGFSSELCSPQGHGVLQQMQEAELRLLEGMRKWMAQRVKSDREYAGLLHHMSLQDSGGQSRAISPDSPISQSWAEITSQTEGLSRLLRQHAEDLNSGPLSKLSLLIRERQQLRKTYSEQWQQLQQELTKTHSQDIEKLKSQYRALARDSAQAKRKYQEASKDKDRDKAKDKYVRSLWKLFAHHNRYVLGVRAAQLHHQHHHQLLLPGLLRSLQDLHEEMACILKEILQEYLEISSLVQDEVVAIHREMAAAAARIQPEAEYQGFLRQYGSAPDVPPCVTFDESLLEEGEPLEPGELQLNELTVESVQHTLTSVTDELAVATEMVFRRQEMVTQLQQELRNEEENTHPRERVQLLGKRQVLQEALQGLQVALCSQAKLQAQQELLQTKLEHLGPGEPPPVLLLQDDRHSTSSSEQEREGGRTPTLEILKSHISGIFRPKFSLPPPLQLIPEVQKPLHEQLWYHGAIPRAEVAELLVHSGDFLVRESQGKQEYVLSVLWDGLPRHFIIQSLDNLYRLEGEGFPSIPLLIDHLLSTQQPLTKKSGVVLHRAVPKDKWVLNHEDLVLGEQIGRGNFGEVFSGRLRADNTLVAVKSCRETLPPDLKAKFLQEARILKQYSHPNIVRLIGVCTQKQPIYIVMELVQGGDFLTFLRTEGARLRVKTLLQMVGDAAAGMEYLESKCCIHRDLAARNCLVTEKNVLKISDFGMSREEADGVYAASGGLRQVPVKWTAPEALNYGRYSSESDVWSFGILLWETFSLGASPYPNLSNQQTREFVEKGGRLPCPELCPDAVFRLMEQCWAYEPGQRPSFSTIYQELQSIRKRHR

Row | Sequence | phosphorylation enrichment
85 | SFHSSYSEIKD [DCLRE1C_Y322] | 0.744
86 | AVPSLYASGRT [ACTA1_Y145_L142P] | 0.57
87 | MSNFACVKREV [SCN1A_Y1694_Y1694C] | 0.911
88 | EHTTLYSDNST [KANSL1_Y223_N225D] | 0.801
89 | ESDFPYSSSFE [SRPK2_Y427_T426P_YF] | 1.1
90 | NLDRFYQQVTK [SEC16A_Y1041] | 0.766
91 | AIGFEYSEINI [SIGLEC12_Y588_YF] | 1.04
92 | YVFSFYHAFSG [ACTN4_Y265_S262F] | 1.43
93 | VKMLLYTEVTR [GDI1_Y93] | 1.43
94 | GHEEFYSTHPH [LRRK2_Y1402_R1398H] | 0.626
95 | SEPDLYYDPRG [PKP1_Y160_C161Y] | 1.16
96 | IRGNMYYENSY [EGFR_Y112] | 0.733
97 | YGGLRYGYGVL [KRTAP20-2_Y13] | 0.741
98 | RPQDGYRIVQH [PTPRT_Y1329] | 0.708
99 | LFDPDYMKVIL [CYP4A22_Y104_YF] | 4.91
100 | CTTIHYHFMCN [TP53_Y234_N235H_YF] | 1.06
101 | KVDKEYEVRVR [GHR_Y226] | 0.864
102 | LYSNAYLNDLA [ALDH1A1_Y119] | 0.914
103 | LPKEQYLYTKE [AFG3L2_Y614] | 1.42
104 | FRGFSYDDIPD [TMEM230_Y112_YF] | 1.44
105 | HLTLVYGGIFL [FBP1_Y259_R255L] | 1.81
106 | LPPGEYVVVPS [CAPN1_Y494] | 1.45
107 | FISLIYTNFEA [GSTP1_Y109_YF] | 1.55
108 | MSRDVYSTDCF [NTRK2_Y702_Y706C_YF] | 1.2
109 | DEIPLYLKGGV [COX7A2_Y44] | 0.962
110 | DISEPYKVYRI [IRF8_Y107] | 0.88
111 | KILTHYKRPHT [KMT2D_Y5349] | 0.621
112 | RAIDMYLMGCF [GABRB2_Y308_K303R] | 1.79
